According to patent US20250382374A1 (VIRIDIAN THERAPEUTICS, published 2025):

Key:
[1] = target: T1, IGF-1R on A549 human lung adenocarcinoma cells or primary human ocular choroid fibroblasts (HOCF) (human, UniProt P08069 31-1367); test: cell-based or functional assay
[2] = target: T1, IGF-1R on A549 human lung …; test: flow cytometry on A549 cells, binding dose response curve (MFI)
Description: (§1) Unbound antibody was removed by washing, and the cells were incubated with an Alexa Fluor 488™—goat anti-human antibody (fluorescently labeled antibody) and a cell impermeable dye to gate live cells. The median fluorescence intensity (MFI) of viable cells was measured by flow cytometry and the data were analyzed using FlowJo™ software. Dose curves were fitted using a non-linear regression model; log (agonist) vs response-variable slope (four parameters).

[3] = target: T1, IGF-1R on A549 human lung …; test: flow cytometry on HOCF cells, binding dose response curve (MFI)
Description: as §1

[4] = target: IGF-1R (as used in the surface plasmon resonance assay of Example 7) (UniProt P08069 31-932, limits assumed); test: SPR, pH 7.4
[5] = target: T1, IGF-1R on A549 human lung …; test: cell based binding assay on A549 cells; YTE only heavy chain (SEQ ID NO: 94)
[6] = target: T1, IGF-1R on A549 human lung …; test: cell based binding assay on A549 cells; C22S plus YTE heavy chain (SEQ ID NO: 95)

Sequence of IGF-1R (as used in the surface plasmon resonance assay of Example 7) (P08069 31-932 limits assumed): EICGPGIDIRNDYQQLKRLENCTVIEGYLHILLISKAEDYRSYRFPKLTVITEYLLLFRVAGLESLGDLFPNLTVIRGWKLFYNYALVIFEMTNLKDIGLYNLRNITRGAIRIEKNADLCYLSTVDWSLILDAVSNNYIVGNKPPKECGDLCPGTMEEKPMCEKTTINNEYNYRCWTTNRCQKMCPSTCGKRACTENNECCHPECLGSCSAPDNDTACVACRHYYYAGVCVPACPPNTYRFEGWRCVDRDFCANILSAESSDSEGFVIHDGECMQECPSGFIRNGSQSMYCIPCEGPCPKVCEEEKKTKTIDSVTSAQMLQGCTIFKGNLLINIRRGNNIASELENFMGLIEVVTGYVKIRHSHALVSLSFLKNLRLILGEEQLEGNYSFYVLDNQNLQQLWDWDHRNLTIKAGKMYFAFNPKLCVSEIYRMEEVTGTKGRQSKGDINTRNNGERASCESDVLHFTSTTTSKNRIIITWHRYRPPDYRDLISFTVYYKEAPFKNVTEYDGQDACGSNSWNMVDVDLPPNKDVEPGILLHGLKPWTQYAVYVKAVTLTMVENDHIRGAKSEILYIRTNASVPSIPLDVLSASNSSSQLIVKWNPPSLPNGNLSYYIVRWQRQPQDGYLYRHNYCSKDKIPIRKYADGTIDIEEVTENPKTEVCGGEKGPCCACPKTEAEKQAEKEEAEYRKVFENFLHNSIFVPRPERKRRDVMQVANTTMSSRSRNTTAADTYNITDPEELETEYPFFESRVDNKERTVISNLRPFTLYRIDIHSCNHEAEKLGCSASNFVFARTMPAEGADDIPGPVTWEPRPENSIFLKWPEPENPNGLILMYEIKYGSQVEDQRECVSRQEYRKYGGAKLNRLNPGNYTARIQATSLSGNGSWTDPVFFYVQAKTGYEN
T1 sequence (P08069 31-1367): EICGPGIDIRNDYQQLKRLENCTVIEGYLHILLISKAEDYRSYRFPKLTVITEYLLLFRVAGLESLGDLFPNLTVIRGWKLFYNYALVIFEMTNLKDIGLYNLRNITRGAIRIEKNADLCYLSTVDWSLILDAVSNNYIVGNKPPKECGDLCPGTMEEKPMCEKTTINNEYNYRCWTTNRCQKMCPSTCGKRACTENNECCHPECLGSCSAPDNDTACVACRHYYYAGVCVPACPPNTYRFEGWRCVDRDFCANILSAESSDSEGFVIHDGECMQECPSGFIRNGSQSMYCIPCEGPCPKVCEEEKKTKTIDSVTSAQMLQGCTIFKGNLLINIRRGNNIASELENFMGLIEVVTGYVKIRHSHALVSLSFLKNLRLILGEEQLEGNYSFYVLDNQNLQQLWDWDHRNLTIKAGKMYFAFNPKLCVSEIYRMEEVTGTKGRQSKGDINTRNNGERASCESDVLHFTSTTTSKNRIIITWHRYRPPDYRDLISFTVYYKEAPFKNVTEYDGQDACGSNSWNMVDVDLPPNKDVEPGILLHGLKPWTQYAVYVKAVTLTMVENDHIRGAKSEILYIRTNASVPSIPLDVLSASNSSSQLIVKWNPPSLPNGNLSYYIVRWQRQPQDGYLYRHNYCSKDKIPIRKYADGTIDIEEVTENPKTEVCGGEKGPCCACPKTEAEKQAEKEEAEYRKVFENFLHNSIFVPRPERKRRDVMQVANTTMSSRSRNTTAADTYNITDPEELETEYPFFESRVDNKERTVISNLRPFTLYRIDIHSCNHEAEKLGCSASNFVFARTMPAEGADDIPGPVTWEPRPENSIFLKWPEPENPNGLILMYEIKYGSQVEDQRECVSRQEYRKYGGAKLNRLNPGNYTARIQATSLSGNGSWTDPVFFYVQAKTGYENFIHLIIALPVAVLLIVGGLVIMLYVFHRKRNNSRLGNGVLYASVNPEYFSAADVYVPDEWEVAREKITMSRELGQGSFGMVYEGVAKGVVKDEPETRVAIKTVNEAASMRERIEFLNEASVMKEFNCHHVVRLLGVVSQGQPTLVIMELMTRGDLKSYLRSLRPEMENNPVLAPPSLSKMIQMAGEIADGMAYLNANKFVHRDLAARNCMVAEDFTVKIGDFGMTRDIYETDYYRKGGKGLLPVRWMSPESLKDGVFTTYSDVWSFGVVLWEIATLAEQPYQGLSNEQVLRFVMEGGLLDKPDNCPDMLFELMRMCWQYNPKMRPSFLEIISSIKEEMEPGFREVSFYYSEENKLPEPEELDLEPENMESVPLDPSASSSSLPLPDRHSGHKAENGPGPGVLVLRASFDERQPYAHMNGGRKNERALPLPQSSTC

B1: VRDN-1100 (antibody, V domains shown)
VH: QVQLVQSGAEVVKPGASVKLSCKASGYTFTSYWMHWVKQRPGQGLEWIGEINPSNGRTNYNQKFQGKATLTVDKSSSTAYMQLSSLTSEDSAVYYFARGRPDYYGSSKWYFDVWGQGTTVTVSS
VL: DVVMTQTPLSLPVSLGDPASISCRSSQSIVHSNVNTYLEWYLQKPGQSPRLLIYKVSNRFSGVPDRFSGSGAGTDFTLRISRVEAEDLGIYYCFQGSHVPPTFGGGTKLEIKR
notes: Humanized monoclonal antibody to IGF-1R; also called VRDN-01100
With B1 the “IC50 of inhibition of IGF-1 stimulated receptor phosphorylation on A549 cells (pIGF-1R ELISA)” value [1] was 0.09 nM, the “IC50 of inhibition of IGF-1 stimulated receptor phosphorylation on HOCF cells (pIGF-1R ELISA)” value [1] was 0.09 nM and the EC50 [2] was 0.1 nM. For the same binder, the EC50 [3] was 0.4 nM.

B2: mutant of VRDN-1100 with a C22S mutation in the heavy chain (antibody, V domains shown)
VH: QVQLVQSGAEVVKPGASVKLSSKASGYTFTSYWMHWVKQRPGQGLEWIGEINPSNGRTNYNQKFQGKATLTVDKSSSTAYMQLSSLTSEDSAVYYFARGRPDYYGSSKWYFDVWGQGTTVTVSS
VL: DVVMTQTPLSLPVSLGDPASISCRSSQSIVHSNVNTYLEWYLQKPGQSPRLLIYKVSNRFSGVPDRFSGSGAGTDFTLRISRVEAEDLGIYYCFQGSHVPPTFGGGTKLEIK
B2 showed a Kd [4] of 0.21 nM, a koff [4] of 2.18e-05 s⁻¹ and a kon [4] of 104000 M⁻¹ s⁻¹.

B3: VRDN-1100 with the Fc YTE mutations in the heavy chain (antibody, human IgG1, kappa)
heavy: QVQLVQSGAEVVKPGASVKLSCKASGYTFTSYWMHWVKQRPGQGLEWIGEINPSNGRTNYNQKFQGKATLTVDKSSSTAYMQLSSLTSEDSAVYYFARGRPDYYGSSKWYFDVWGQGTTVTVSSASTKGPSVFPLAPSSKSTSGGTAALGCLVKDYFPEPVTVSWNSGALTSGVHTFPAVLQSSGLYSLSSVVTVPSSSLGTQTYICNVNHKPSNTKVDKKVEPKSCDKTHTCPPCPAPELLGGPSVFLFPPKPKDTLYITREPEVTCVVVDVSHEDPEVKFNWYVDGVEVHNAKTKPREEQYNSTYRVVSVLTVLHQDWLNGKEYKCKVSNKALPAPIEKTISKAKGQPREPQVYTLPPSRDELTKNQVSLTCLVKGFYPSDIAVEWESNGQPENNYKTTPPVLDSDGSFFLYSKLTVDKSRWQQGNVFSCSVMHEALHNHYTQKSLSLSPG
light: DVVMTQTPLSLPVSLGDPASISCRSSQSIVHSNVNTYLEWYLQKPGQSPRLLIYKVSNRFSGVPDRFSGSGAGTDFTLRISRVEAEDLGIYYCFQGSHVPPTFGGGTKLEIKRTVAAPSVFIFPPSDEQLKSGTASVVCLLNNFYPREAKVQWKVDNALQSGNSQESVTEQDSKDSTYSLSSTLTLSKADYEKHKVYACEVTHQGLSSPVTKSFNRGEC
notes: also called YTE Fc mutatant version of VRDN1100; YTE only mutant
B3 was tested, and the “IC50 of inhibition of IGF-1R autophosphorylation” value [1] was 0.4 nM and the EC50 [5] was 0.3 nM.

B4: VRDN-1100 with C22S mutation and Fc YTE mutations in the heavy chain (antibody, human IgG1, kappa)
heavy: QVQLVQSGAEVVKPGASVKLSSKASGYTFTSYWMHWVKQRPGQGLEWIGEINPSNGRTNYNQKFQGKATLTVDKSSSTAYMQLSSLTSEDSAVYYFARGRPDYYGSSKWYFDVWGQGTTVTVSSASTKGPSVFPLAPSSKSTSGGTAALGCLVKDYFPEPVTVSWNSGALTSGVHTFPAVLQSSGLYSLSSVVTVPSSSLGTQTYICNVNHKPSNTKVDKKVEPKSCDKTHTCPPCPAPELLGGPSVFLFPPKPKDTLYITREPEVTCVVVDVSHEDPEVKFNWYVDGVEVHNAKTKPREEQYNSTYRVVSVLTVLHQDWLNGKEYKCKVSNKALPAPIEKTISKAKGQPREPQVYTLPPSRDELTKNQVSLTCLVKGFYPSDIAVEWESNGQPENNYKTTPPVLDSDGSFFLYSKLTVDKSRWQQGNVFSCSVMHEALHNHYTQKSLSLSPG
light: DVVMTQTPLSLPVSLGDPASISCRSSQSIVHSNVNTYLEWYLQKPGQSPRLLIYKVSNRFSGVPDRFSGSGAGTDFTLRISRVEAEDLGIYYCFQGSHVPPTFGGGTKLEIKRTVAAPSVFIFPPSDEQLKSGTASVVCLLNNFYPREAKVQWKVDNALQSGNSQESVTEQDSKDSTYSLSSTLTLSKADYEKHKVYACEVTHQGLSSPVTKSFNRGEC
notes: also called C22S and Fc YTE mutant; C22S plus YTE mutations
In the case of B4, the “IC50 of inhibition of IGF-1R autophosphorylation” value [1] is reported as 0.37 nM and the EC50 [6] is reported as 0.36 nM.
